Experimental data as given in publication PMC5558430 (The Biochemical journal, 2017).

Key:
[1] = molecular target: T1, GTP cyclohydrolase IB (GCYH-IB) (Neisseria gonorrhoeae, UniProt Q5F9K6); assay: competitive inhibition kinetics, fluorescence assay of neopterin; format: biochemical
T1 sequence (Q5F9K6 1-257): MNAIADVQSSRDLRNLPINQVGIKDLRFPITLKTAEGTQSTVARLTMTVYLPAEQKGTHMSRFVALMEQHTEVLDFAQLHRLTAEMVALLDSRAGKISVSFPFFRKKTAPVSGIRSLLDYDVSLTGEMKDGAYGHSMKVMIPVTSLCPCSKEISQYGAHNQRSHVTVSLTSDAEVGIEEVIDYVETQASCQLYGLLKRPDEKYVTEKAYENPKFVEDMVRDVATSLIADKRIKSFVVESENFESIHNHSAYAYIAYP

[2] = molecular target: GTP cyclohydrolase IB (GCYH-IB) (Neisseria gonorrhoeae, UniProt Q5F9K6); assay: X-ray crystal structure at […] Å; format: biochemical
[3] = molecular target: Neisseria gonorrhoeae GCYH-IB Cys149Ala mutant (Neisseria gonorrhoeae) (UniProt Q5F9K6); assay: SEC
[4] = molecular target: Neisseria gonorrhoeae GCYH-IB Cys149Ser mutant (Neisseria gonorrhoeae) (UniProt Q5F9K6); assay: SEC
[5] = molecular target: Neisseria gonorrhoeae GCYH-IB Glu152Ala mutant (Neisseria gonorrhoeae) (UniProt Q5F9K6); assay: SEC
[6] = molecular target: Neisseria gonorrhoeae GCYH-IB Glu243Ala mutant (Neisseria gonorrhoeae) (UniProt Q5F9K6); assay: SEC
[7] = molecular target: Neisseria gonorrhoeae GCYH-IB His246Ala mutant (Neisseria gonorrhoeae) (UniProt Q5F9K6); assay: SEC
[8] = molecular target: Neisseria gonorrhoeae GCYH-IB His246Asn mutant (Neisseria gonorrhoeae) (UniProt Q5F9K6); assay: SEC
[9] = molecular target: Neisseria gonorrhoeae GCYH-IB His246Asp mutant (Neisseria gonorrhoeae) (UniProt Q5F9K6); assay: SEC
[10] = molecular target: Neisseria gonorrhoeae GCYH-IB His246Gln mutant (Neisseria gonorrhoeae) (UniProt Q5F9K6); assay: SEC
[11] = molecular target: Neisseria gonorrhoeae GCYH-IB His246Lys mutant (Neisseria gonorrhoeae) (UniProt Q5F9K6); assay: SEC
steady-state kinetics = substrate: Nc1nc2c(ncn2[C@@H]2O[C@H](COP(=O)(O)OP(=O)(O)OP(=O)(O)O)[C@@H](O)[C@H]2O)c(=O)[nH]1; assay: steady-state kinetics; format: biochemical, Neisseria gonorrhoeae; settings: Mn2+ active site
crystal structure = molecular target: the molecule itself; assay: crystal structure

Nc1nc2c(ncn2[C@H]2C[C@H](O)[C@@H](COP(=O)(O)OP(=O)(O)OP(=O)(O)O)O2)c(=O)[nH]1 [2′-deoxyGTP]
Ki [1]: 164 µM

Nc1nc2c(ccn2[C@@H]2O[C@H](COP(=O)(O)OP(=O)(O)OP(=O)(O)O)[C@@H](O)[C@H]2O)c(=O)[nH]1 [7-deaza-GTP]
Ki [1]: 45.7 µM

Nc1nc2c([nH]c(=O)n2[C@@H]2O[C@H](CO[P@@](=O)(O)O[P@@](=O)(O)OP(=O)(O)O)[C@@H](O)[C@H]2O)c(=O)[nH]1 [8-oxo-GTP]
Ki [2]: 0.149 µM

Neisseria gonorrhoeae GCYH-IB Cys149Ala mutant (from UniProt Q5F9K6 1-257) (enzyme)
stoichiometry N [3]: 4

Neisseria gonorrhoeae GCYH-IB Cys149Ser mutant (from UniProt Q5F9K6 1-257) (enzyme)
stoichiometry N [4]: 4

Neisseria gonorrhoeae GCYH-IB Glu152Ala mutant (from UniProt Q5F9K6 1-257) (enzyme)
stoichiometry N [5]: 4

Neisseria gonorrhoeae GCYH-IB Glu243Ala mutant (from UniProt Q5F9K6 1-257) (enzyme)
stoichiometry N [6]: 4

Neisseria gonorrhoeae GCYH-IB His246Ala mutant (from UniProt Q5F9K6 1-257) (enzyme)
stoichiometry N [7]: 4

Neisseria gonorrhoeae GCYH-IB His246Asn mutant (from UniProt Q5F9K6 1-257) (enzyme)
stoichiometry N [8]: 4

Neisseria gonorrhoeae GCYH-IB His246Asp mutant (from UniProt Q5F9K6 1-257) (enzyme)
stoichiometry N [9]: 4

Neisseria gonorrhoeae GCYH-IB His246Gln mutant (from UniProt Q5F9K6 1-257) (enzyme)
stoichiometry N [10]: 4

Neisseria gonorrhoeae GCYH-IB His246Lys mutant (from UniProt Q5F9K6 1-257) (enzyme)
stoichiometry N [11]: 4

B1: GTP cyclohydrolase IB (GCYH-IB) (Neisseria gonorrhoeae FA 1090) (protein)
chain: MNAIADVQSSRDLRNLPINQVGIKDLRFPITLKTAEGTQSTVARLTMTVYLPAEQKGTHMSRFVALMEQHTEVLDFAQLHRLTAEMVALLDSRAGKISVSFPFFRKKTAPVSGIRSLLDYDVSLTGEMKDGAYGHSMKVMIPVTSLCPCSKEISQYGAHNQRSHVTVSLTSDAEVGIEEVIDYVETQASCQLYGLLKRPDEKYVTEKAYENPKFVEDMVRDVATSLIADKRIKSFVVESENFESIHNHSAYAYIAYP
Km (steady-state kinetics): 9.15 µM

B2: Neisseria gonorrhoeae GTP cyclohydrolase IB, wild type (enzyme)
chain: MNAIADVQSSRDLRNLPINQVGIKDLRFPITLKTAEGTQSTVARLTMTVYLPAEQKGTHMSRFVALMEQHTEVLDFAQLHRLTAEMVALLDSRAGKISVSFPFFRKKTAPVSGIRSLLDYDVSLTGEMKDGAYGHSMKVMIPVTSLCPCSKEISQYGAHNQRSHVTVSLTSDAEVGIEEVIDYVETQASCQLYGLLKRPDEKYVTEKAYENPKFVEDMVRDVATSLIADKRIKSFVVESENFESIHNHSAYAYIAYP
modifications: S-nitrosylated Cys149 (as purified from E. coli)
stoichiometry N (crystal structure): 4
